Data reported in patent US20100227824A1 (SYMTHERA CANADA, published 2010).
Ends that are not written are not given here. * marks the point of attachment. Biotin = O=C1N[C@H]2[C@H](CS[C@H]2CCCCC(=O)*)N1

Assays:
[1] = target: T1, SDF-1β (CXCL12) (UniProt P48061 22-93); experiment: micro-array, biotinylated peptide on printed CK
T1 construct: Beta isoform of CXCL12; also called SDFβ

[2] = target: T2, SDF-1α (CXCL12) (UniProt P48061-2 22-89); experiment: micro-array, biotinylated peptide on printed CK
T2 construct: Alpha isoform of CXCL12; also called SDFα

[3] = target: T3, BCA-1 (CXCL13) (UniProt O43927 23-109); experiment: micro-array, biotinylated peptide on printed CK
T3 construct: Bought chemokine
T3 sequence (looked up): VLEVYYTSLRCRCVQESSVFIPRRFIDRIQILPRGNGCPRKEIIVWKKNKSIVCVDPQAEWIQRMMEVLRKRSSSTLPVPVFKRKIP

[4] = target: T4, Lymphotactin (XCL-1) (UniProt P47992 23-114, limits assumed); experiment: micro-array, biotinylated peptide on printed CK
T4 construct: Bought chemokine
T4 sequence (looked up): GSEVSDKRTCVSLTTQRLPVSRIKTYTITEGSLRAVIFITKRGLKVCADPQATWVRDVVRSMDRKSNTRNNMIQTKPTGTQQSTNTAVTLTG

[5] = target: T5, I-309 (CCL1) (UniProt P22362 23-96, limits assumed); experiment: micro-array, biotinylated peptide on printed CK
T5 construct: Bought chemokine
T5 sequence (looked up): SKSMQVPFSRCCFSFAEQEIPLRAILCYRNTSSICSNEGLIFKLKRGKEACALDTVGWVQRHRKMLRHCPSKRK

[6] = target: T6, Eotaxin 2 (CCL24) (UniProt O00175 27-104, limits assumed); experiment: micro-array, biotinylated peptide on printed CK
T6 construct: Bought chemokine
T6 sequence (looked up): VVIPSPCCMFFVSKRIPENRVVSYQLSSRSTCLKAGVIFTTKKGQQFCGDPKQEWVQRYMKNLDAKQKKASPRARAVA

[7] = target: T7, TECK (CCL25) (UniProt O15444 24-150); experiment: micro-array, biotinylated peptide on printed CK
T7 construct: Bought chemokine
T7 sequence (looked up): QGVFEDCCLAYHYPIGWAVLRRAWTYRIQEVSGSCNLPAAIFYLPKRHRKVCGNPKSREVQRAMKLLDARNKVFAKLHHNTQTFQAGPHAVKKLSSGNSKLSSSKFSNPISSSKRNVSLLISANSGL

[8] = target: T8, GRO-β (CXCL2) (UniProt P19875 35-107); experiment: micro-array, biotinylated peptide on printed CK
T8 construct: Bought chemokine
T8 sequence (looked up): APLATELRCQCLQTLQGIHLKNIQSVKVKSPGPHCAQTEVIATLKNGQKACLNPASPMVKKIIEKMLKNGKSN

[9] = target: T9, Eotaxin (CCL11) (UniProt P51671 24-97); experiment: micro-array, biotinylated peptide on printed CK
T9 construct: Bought chemokine

[10] = target: T10, I-TAC (CXCL11) (UniProt O14625 22-94); experiment: micro-array, biotinylated peptide on printed CK
T10 construct: Bought chemokine; also called I-TACK
T10 sequence (looked up): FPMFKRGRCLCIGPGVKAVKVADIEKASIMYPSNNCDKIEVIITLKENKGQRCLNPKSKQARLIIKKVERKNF

[11] = target: T11, MCP-1 (CCL2) (UniProt P13500 24-99); experiment: micro-array, biotinylated peptide on printed CK
T11 construct: Bought chemokine

[12] = target: T12, Eotaxin 3 (CCL26) (UniProt Q9Y258 24-94); experiment: micro-array, biotinylated peptide on printed CK
T12 construct: Bought chemokine
T12 sequence (looked up): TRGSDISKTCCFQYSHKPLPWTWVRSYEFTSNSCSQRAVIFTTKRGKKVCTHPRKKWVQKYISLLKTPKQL

[13] = target: T13, Mig (CXCL9) (UniProt Q07325 23-125); experiment: SPR, ProteOn XPR36, GLM chip
T13 construct: Bought chemokine
T13 sequence (looked up): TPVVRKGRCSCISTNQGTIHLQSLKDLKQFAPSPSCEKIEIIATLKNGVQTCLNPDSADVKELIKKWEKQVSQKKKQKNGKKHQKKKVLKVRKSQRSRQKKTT
Description: (§1) Surface Plasmon Resonance (SPR): SPR was performed to make a quantitative determination of CK-peptide affinity. SPR measures the apparent equilibrium dissociation constant (KD) of the CK-binding peptide in the CK-peptide complex. KD is the ratio of the rate constants, Kd (1/s) and Kₐ (1/Ms), Kd/Kₐ. SPR was done with the ProteOn XPR36-Protein Interaction Array System (BioRad, Israel) with the Sensor Chip, GLM (sensor range 12-15 K response units).
(§2) Summary of Results: Affinity of Chemokine—Peptide Inteaction. […] The affinity with which peptides interact with CKs is relevant for low affinity reagents that are intended to engage multiple disease-related target proteins. SPR analysis was employed to determine the apparent equilibrium dissociation constants (KD) of CK-peptide complexes. […] Peptide binding in the micro-milli molar range is low affinity interaction. SPR analysis also corroborated differential binding measurements made by the micro-array analysis (FIG. 25b).

[14] = target: T14, IL-8 (CXCL8) (UniProt P10145 28-99, limits assumed); experiment: SPR, ProteOn XPR36, GLM chip
T14 construct: also called IL-8(72aa); IL-8(77aa)
T14 sequence (looked up): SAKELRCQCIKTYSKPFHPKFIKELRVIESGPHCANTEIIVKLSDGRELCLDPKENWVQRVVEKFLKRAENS
Description: as §1, §2

[15] = target: T15, Exodus-2 (CCL21) (UniProt O00585 24-134); experiment: micro-array, phage-presented peptide on printed CK
T15 construct: Bought chemokine
T15 sequence (looked up): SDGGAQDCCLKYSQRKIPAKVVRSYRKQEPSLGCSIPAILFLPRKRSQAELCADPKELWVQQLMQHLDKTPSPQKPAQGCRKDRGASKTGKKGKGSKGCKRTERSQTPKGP
Description: (§3) (1) Printing: Chemokine (CK) solution (in water) was serially diluted with Print Reagent (GenTel BioSurfaces USA) to final concentrations of 50 μg and 25 μg/ml. BSA/BSA-Biotin control solutions (in water) were diluted with Print Reagent to 100 μg/ml. Amplified stock of M13 phage control (M13KEgIII Cloning Vector, New England Biolabs, Cat.No.E8101S) was stored in Tris Buffered Saline (TBS; pH7.5, 4° C.) and diluted with Print Reagent to the working titre (10^8 pfu/μl). An automated spotting robot (16 pin print tool, 0.4mm head; BioRobotics, UK) was used to print the CK/BSA control/M13 control, 5 repeats per sample (CK 25 μg/ml and 50 μg/ml; BSA 100 μg/ml; M13 20 μl), on PATH Protein Microarray Slides (GenTel, Prod.No.2-1005/-1025) at […], and 50-70% relative humidity. Printed micro-array slides were stored at Room Temperature (RT) or 4° C. for at least 24 h before use.
(§4) (2) Blocking: Block Buffer (500 μl/partition; PATHblock, GenTel, Prod.No.2-1014) was applied to the slide for 1 hour at room temp (RT). After removal of Block Buffer, the slide was air dried for 25 minutes;
(§5) (11) Analysis: Quantitative analysis of micro-array was performed by the SpotReader program of Niles Scientific (USA) and presented as Relative Fluorescence (RF) as a function of CK concentration. Micro-array readout (Cy3 fluorescence) was quantified to determine the relative binding affinities of a CBP for the CKs and by inference, the specificity of the CBP for binding to a CK.

[16] = target: T1, SDF-1β (CXCL12); experiment: micro-array, phage-presented peptide on printed CK
Description: as §3, §4, §5

[17] = target: T16, IP-10 (CXCL10) (UniProt P02778 22-98); experiment: micro-array, phage-presented peptide on printed CK
T16 construct: Bought chemokine
T16 sequence (looked up): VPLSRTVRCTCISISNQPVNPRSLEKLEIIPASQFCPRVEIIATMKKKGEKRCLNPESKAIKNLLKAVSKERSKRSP
Description: as §3, §4, §5

[18] = target: T17, MDC(69aa) (CCL22) (UniProt O00626 25-93); experiment: micro-array, phage-presented peptide on printed CK
T17 construct: Bought chemokine
T17 sequence (looked up): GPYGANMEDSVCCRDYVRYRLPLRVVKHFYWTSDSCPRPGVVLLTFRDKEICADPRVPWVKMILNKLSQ
Description: as §3, §4, §5

[19] = target: T2, SDF-1α (CXCL12); experiment: micro-array, phage-presented peptide on printed CK
Description: as §3, §4, §5

[20] = target: T18, MIP-3α (CCL20) (UniProt P78556 27-96); experiment: micro-array, phage-presented peptide on printed CK
T18 construct: Bought chemokine
Description: as §3, §4, §5

[21] = target: T3, BCA-1 (CXCL13); experiment: micro-array, phage-presented peptide on printed CK
Description: as §3, §4, §5

[22] = target: T4, Lymphotactin (XCL-1); experiment: micro-array, phage-presented peptide on printed CK
Description: as §3, §4, §5

[23] = target: T19, MCP-2 (CCL8) (UniProt P80075 24-99); experiment: micro-array, phage-presented peptide on printed CK
T19 construct: Bought chemokine
T19 sequence (looked up): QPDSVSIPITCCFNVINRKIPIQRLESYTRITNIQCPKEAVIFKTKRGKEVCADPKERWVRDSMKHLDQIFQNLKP
Description: as §3, §4, §5

[24] = target: T5, I-309 (CCL1); experiment: micro-array, phage-presented peptide on printed CK
Description: as §3, §4, §5

[25] = target: T6, Eotaxin 2 (CCL24); experiment: micro-array, phage-presented peptide on printed CK
Description: as §3, §4, §5

[26] = target: T13, Mig (CXCL9); experiment: micro-array, phage-presented peptide on printed CK
Description: as §3, §4, §5

[27] = target: T7, TECK (CCL25); experiment: micro-array, phage-presented peptide on printed CK
Description: as §3, §4, §5

[28] = target: T20, MCP-4 (CCL13) (UniProt Q99616 24-98); experiment: micro-array, phage-presented peptide on printed CK
T20 construct: Bought chemokine
Description: as §3, §4, §5

[29] = target: T21, CTAC (CCL27) (UniProt Q9Y4X3 25-112); experiment: micro-array, phage-presented peptide on printed CK
T21 construct: Bought chemokine
T21 sequence (looked up): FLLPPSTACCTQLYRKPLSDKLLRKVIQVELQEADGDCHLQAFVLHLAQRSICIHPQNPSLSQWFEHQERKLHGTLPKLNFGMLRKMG
Description: as §3, §4, §5

[30] = target: T9, Eotaxin (CCL11); experiment: micro-array, phage-presented peptide on printed CK
Description: as §3, §4, §5

[31] = target: T10, I-TAC (CXCL11); experiment: micro-array, phage-presented peptide on printed CK
Description: as §3, §4, §5

[32] = target: T11, MCP-1 (CCL2); experiment: micro-array, phage-presented peptide on printed CK
Description: as §3, §4, §5

[33] = target: T12, Eotaxin 3 (CCL26); experiment: micro-array, phage-presented peptide on printed CK
Description: as §3, §4, §5

[34] = target: T15, Exodus-2 (CCL21); experiment: micro-array, biotinylated peptide on printed CK
[35] = target: T18, MIP-3α (CCL20); experiment: micro-array, biotinylated peptide on printed CK
[36] = target: T22, RANTES (CCL5) (UniProt P13501 24-91); experiment: micro-array, biotinylated peptide on printed CK
T22 construct: Bought chemokine
T22 sequence (looked up): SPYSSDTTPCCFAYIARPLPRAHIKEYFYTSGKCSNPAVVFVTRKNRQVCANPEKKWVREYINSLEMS

[37] = target: T13, Mig (CXCL9); experiment: micro-array, biotinylated peptide on printed CK
[38] = target: T20, MCP-4 (CCL13); experiment: micro-array, biotinylated peptide on printed CK

T2 sequence (P48061 22-89 limits assumed): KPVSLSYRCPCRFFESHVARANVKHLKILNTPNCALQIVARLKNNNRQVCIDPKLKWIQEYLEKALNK
T1 sequence (P48061 22-93 limits assumed): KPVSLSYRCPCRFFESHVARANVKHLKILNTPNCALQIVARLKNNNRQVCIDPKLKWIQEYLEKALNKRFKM
T11 sequence (P13500 24-99 limits assumed): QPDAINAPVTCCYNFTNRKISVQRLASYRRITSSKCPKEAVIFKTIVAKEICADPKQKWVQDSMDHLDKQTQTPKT
T9 sequence (P51671 24-97 limits assumed): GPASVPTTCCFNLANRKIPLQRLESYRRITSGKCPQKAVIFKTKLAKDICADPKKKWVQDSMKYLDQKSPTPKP
T20 sequence (Q99616 24-98 limits assumed): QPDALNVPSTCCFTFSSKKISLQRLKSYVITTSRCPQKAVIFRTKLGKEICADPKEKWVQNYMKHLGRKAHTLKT
T18 sequence (P78556 27-96 limits assumed): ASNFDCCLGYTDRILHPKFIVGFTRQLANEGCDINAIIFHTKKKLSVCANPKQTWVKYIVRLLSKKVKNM

Biotin-FFGLNNC [Chemokine Binding Peptide 10 (CBP10)]: binds [1]; binds [2]; binds [3]. Biotin-FFGLNNC [Chemokine Binding Peptide 10 (CBP10)]: binds [4]; binds [5]; binds [6]. Biotin-FFGLNNC [Chemokine Binding Peptide 10 (CBP10)]: binds [7]; binds [8]; binds [9]. For the same binder, the binding result [10] was “binds”, the “Relative Fluorescence Units (RFU)” value [11] was greater than 600 RFU and the binding result [12] was “binds”.

In the case of VTTFFDYDYGAPC (Peptide used in SPR; also called CB6R2) [CBP6 (VTTFFDYDYGAPC, from the N-terminal of CCR2)], the Kd [13] is reported as 28.2 µM and the Kd [14] is reported as 1060 µM.

WVFGAAMCK [Phage-Presented Peptide 8.8 (Ph-p8.8)]: binds [15]; binds [16]; binds [17]. WVFGAAMCK [Phage-Presented Peptide 8.8 (Ph-p8.8)]: binds [18]; binds [19]; binds [20]. For the same binder, the binding result [21] was “binds”, the binding result [22] was “binds” and the “Relative Fluorescence Units (RFU)” value [23] was greater than 15000 RFU. WVFGAAMCK [Phage-Presented Peptide 8.8 (Ph-p8.8)]: binds [24]; binds [25]; binds [26]. The binding result [27] was “binds”, the “Relative Fluorescence Units (RFU)” value [28] was greater than 15000 RFU and the binding result [29] was “binds”. The binding result [30] was “binds”, the binding result [31] was “binds” and the “Relative Fluorescence Units (RFU)” value [32] was greater than 15000 RFU. WVFGAAMCK [Phage-Presented Peptide 8.8 (Ph-p8.8)]: binds [33].

B1: Chemokine Binding Peptide 5 (CBP5) (peptide)
peptide: Biotin-LFGNDCE
notes: Synthetic biotinylated peptide, not phage-presented
B1: binds [34]; binds [1]; binds [2]. The binding result [35] was “binds”, the binding result [5] was “binds” and the “Relative Fluorescence Units (RFU)” value [36] was greater than 2500 RFU. The binding result [37] was “binds”, the binding result [7] was “binds” and the “Relative Fluorescence Units (RFU)” value [38] was greater than 2500 RFU. The “Relative Fluorescence Units (RFU)” value [9] was greater than 2500 RFU, the binding result [11] was “binds” and the “Relative Fluorescence Units (RFU)” value [12] was greater than 2500 RFU.
